Test results reported in the DeepSol protein solubility set.

experiment: soluble on expression in E. coli; label from the status in PepcDB or PDB records

Sequence	soluble on expression in E. coli
MGSDKIHHHHHHMSHVSYAEPPAQGWDIHCHTVFSDGTETPRTLVEQARKLGLHGVAIADHDTTAGWDEATEASEEIGLPLLLGTEITAVDEDVSVHMLAFQYDPSNEHISSMFANTRAARLRRTKRMVERLSQDFPITWDDVLAQVKEGERTTIGRPHIADALVAAGVYETRSDAFADAVSAKSKYYIPTPSPSTHEVIAAVKGAGGVVVAAHAGDPQRNRRLLSDEQLDAMIADGLDGLEVWHRGNPPEQRERLLTIAARHDLLVTGGSDWHGKGKPNGLGENLTDDDTVREILCRGVDLIGRVGSSHAA	not soluble
GLNHMTARYLREEHHMFRAAFRKFLEKEAYPHYNDWEKRGIIPRSFWAKMGENGFLCPWVDEKYGGLNADFAYSVVINEELEKVGSSLVGIGLHNDIVTPYIASYGTEEQKQKWLPKCVTGELITAIAMTEPGAGSDLANISTTAVKDGDYYIVNGQKTFITNGIHADLIVVACKTDPQAKPPHRGISLLVVERDTPGFTRGRKLEKVGLHAQDTAELFFQDAKVPAYNLLGEEGKGFYYLMEKLQQERLVVAIAAQTAAEVMFSLTKQYVKQRTAFGKRVSEFQTVQFRLAEMATEIALGRTFVDRVIEEHMAGKQIVTEVSMAKWWITEMAKRVAAEAMQLHGGYGYMEEYEIARRYRDIPVSAIYAGTNEMMKTIIARQLDL	soluble
MSLNLVSKLEETASEKPDSIACRFKDHMMTYQELNEYIQRFADGLQEAGMEKGDHLALLLGNSPDFIIAFFGALKAGIVVVPINPLYTPTEIGYMLTNGDVKAIVGVSQLLPLYESMHESLPKVELVILCQTGEAEPEAADPEVRMKMTTFAKILRPTSAAKQNQEPVPDDTAVILYTSGTTGKPKGAMLTHQNLYSNANDVAGYLGMDERDNVVCALPMFHVFCLTVCMNAPLMSGATVLIEPQFSPASVFKLVKQQQATIFAGVPTMYNYLFQHENGKKDDFSSIRLCISGGASMPVALLTAFEEKFGVTILEGYGLSEASPVTCFNPFDRGRKPGSIGTSILHVENKVVDPLGRELPAHQVGELIVKGPNVMKGYYKMPMETEHALKDGWLYTGDLARRDEDGYFYIVDRKKDMIIVGGYNVYPREVEEVLYSHPDVKEAVVIGVPDPQSGEAVKGYVVPKRSGVTEEDIMQHCEKHLAKYKRPAAITFLDDIPKNATGKMLRRALRDILPQGHHHHHH	soluble
MDQLSAMRAFVRVVETGSFSATGKEMNTSQTTISKKVAALENQIGVKLLTRSSRDHSLTPAGSDYYQTCVNILSELDEVEAKVRSKATLPQGSIRITAPVAFGRFLLAPIVAEFFQHYPDIKIDLLLNDKHVNLISEGIDVAIRAKNLEDSSLVARHLLDNPMYLFASPDYLEQYGEPKHPNELSTHNCLIYSGLQDAHIWNFNHGEKEYSVPVKGNFQSDNGDVLLDVALTGVGIVSLPIWMAKAHLTSGHLRQIMTKYSGQQLPINAIYPQRRYTPLKVRCFIDFLKQKLSE	not soluble
MTKPLDGINVLDFTHVQAGPACTQMMGFLGANVIKIERRGSGDMTRGWLQDKPNVDSLYFTMFNCNKRSIELDMKTPEGKELLEQMIKKADVMVENFGPGALDRMGFTWEYIQELNPRVILASVKGYAEGHANEHLKVYENVAQCSGGAAATTGFWDGPPTVSGAALGDSNSGMHLMIGILAALEIRHKTGRGQKVAVAMQDAVLNLVRIKLRDQQRLERTGILAEYPQAQPNFAFDRDGNPLSFDNITSVPRGGNAGGGGQPGWMLKCKGWETDADSYVYFTIAANMWPQICDMIDKPEWKDDPAYNTFEGRVDKLMDIFSFIETKFADKDKFEVTEWAAQYGIPCGPVMSMKELAHDPSLQKVGTVVEVVDEIRGNHLTVGAPFKFSGFQPEITRAPLLGEHTDEVLKELGLDDAKIKELHAKQVV	soluble
